# B1: Fab fragment from H1-specific monoclonal antibody GC0587 (Fab, V domains shown)
# VH: VKLQQSGGGVVQPGGSLRLSCAASGFTFSDYDMSWIRQAPGKGLEWVSGILGGSERSYYRDSVKGRFTISRDNSRKTLYLQMNSLRAEDTAVYYCARHGSPGYTLYAWDYWGQGTMVTVSS
# VL: DIQMTQSPASLAVSPGQRATITCRASESVSNYGINFINWFQQKPGQPPKLLIYTASNKGTGVPARFSGSGSGTDFTLTINPVEAEDTANYFCQQTKEVPYTFGGGTKLEIK
# notes: also called Fab0587
# Biological target: T1, recombinant hemagglutinin (HA) of 2009 pandemic virus A/Korea/01/2009 (KR01) (Influenza A virus A/Korea/01/2009 (H1N1), strain)
# T1 construct: also called KR01 HA; H1N1 HA
# Experiment: crystal structure
# Conditions: both partners purified
binder,measurement,value
B1,binding result,binds

# From PMC3935945, “Insight into Highly Conserved H1 Subtype-Specific Epitopes in Influenza Virus Hemagglutinin” (PLoS ONE, 2014)
